One block for each binder: values may come before it.
Columns and labels:
human IL-17RE [1] = target: T1, human IL-17RE (human, UniProt Q8NFR9 24-667); test: binding screen on IL-17RE expressing 293 cells
T1 construct: Retrovirally expressed on 293 cells or HDFn fibroblasts from human IL17RE cDNA; A possible Flag tag on the construct is not described; also called hIL-17RE
T1 sequence: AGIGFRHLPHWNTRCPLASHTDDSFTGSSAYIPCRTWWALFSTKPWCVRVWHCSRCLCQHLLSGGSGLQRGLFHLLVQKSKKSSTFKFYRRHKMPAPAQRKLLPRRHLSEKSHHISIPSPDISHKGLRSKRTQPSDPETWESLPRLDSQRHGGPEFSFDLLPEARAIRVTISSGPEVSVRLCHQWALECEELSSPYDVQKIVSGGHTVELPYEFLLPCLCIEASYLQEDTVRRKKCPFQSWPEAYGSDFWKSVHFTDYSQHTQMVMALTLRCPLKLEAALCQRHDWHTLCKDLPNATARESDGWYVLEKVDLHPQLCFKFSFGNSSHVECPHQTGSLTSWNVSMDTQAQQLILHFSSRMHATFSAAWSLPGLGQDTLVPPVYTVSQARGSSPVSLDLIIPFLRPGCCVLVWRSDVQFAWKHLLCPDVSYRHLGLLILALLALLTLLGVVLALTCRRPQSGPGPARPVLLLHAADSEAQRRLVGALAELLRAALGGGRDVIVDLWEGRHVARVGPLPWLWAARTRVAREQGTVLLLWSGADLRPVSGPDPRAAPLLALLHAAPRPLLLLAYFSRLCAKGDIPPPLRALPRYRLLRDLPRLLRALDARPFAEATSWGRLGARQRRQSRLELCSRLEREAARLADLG

human IL-17RB = target: T2, human IL-17RB (human, UniProt Q9NRM6 18-502); test: flow cytometry, Flag-tagged hIL-17C on 293 cells expressing the receptor, anti-Flag detection
T2 construct: whole, on cells
T2 sequence (looked up): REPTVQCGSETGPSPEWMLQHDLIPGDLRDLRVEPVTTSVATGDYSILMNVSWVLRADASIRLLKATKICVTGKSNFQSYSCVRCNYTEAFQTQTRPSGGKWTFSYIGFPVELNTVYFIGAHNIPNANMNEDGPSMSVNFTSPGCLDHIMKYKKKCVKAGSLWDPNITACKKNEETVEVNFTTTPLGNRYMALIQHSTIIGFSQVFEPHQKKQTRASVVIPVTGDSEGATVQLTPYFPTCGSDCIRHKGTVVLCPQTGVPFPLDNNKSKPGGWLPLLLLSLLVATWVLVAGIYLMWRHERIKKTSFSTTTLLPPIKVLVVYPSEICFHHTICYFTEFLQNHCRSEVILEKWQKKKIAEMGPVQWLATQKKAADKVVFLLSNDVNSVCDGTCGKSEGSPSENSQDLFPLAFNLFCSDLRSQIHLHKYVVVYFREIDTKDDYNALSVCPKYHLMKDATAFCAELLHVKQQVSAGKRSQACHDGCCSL

human IL-17RC = target: T3, human IL-17RC (human, UniProt Q8NAC3 21-791); test: as above
T3 construct: whole, on cells
T3 sequence (looked up): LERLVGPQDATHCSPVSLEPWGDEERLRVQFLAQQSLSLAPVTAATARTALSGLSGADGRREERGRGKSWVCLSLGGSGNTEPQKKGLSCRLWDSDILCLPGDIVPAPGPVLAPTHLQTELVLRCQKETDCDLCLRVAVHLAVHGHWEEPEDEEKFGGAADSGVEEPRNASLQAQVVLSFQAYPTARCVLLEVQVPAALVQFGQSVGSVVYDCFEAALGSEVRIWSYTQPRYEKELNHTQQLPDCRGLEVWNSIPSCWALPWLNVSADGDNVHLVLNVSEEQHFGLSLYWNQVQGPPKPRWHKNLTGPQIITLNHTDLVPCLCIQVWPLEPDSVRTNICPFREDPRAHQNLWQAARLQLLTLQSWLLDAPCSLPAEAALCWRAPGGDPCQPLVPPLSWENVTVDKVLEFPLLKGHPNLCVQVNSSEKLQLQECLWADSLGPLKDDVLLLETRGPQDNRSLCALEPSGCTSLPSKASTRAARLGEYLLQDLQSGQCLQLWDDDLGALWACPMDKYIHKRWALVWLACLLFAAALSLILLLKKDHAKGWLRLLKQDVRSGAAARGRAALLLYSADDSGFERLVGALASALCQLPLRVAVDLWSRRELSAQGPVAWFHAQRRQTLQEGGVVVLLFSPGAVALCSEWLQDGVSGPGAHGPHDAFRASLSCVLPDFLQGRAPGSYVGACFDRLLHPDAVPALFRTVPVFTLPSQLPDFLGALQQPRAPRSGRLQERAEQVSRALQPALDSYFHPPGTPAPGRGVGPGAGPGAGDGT

human IL-17RD = target: T4, human IL-17RD (human, UniProt Q8NFM7 17-739); test: as above
T4 construct: whole, on cells
T4 sequence (looked up): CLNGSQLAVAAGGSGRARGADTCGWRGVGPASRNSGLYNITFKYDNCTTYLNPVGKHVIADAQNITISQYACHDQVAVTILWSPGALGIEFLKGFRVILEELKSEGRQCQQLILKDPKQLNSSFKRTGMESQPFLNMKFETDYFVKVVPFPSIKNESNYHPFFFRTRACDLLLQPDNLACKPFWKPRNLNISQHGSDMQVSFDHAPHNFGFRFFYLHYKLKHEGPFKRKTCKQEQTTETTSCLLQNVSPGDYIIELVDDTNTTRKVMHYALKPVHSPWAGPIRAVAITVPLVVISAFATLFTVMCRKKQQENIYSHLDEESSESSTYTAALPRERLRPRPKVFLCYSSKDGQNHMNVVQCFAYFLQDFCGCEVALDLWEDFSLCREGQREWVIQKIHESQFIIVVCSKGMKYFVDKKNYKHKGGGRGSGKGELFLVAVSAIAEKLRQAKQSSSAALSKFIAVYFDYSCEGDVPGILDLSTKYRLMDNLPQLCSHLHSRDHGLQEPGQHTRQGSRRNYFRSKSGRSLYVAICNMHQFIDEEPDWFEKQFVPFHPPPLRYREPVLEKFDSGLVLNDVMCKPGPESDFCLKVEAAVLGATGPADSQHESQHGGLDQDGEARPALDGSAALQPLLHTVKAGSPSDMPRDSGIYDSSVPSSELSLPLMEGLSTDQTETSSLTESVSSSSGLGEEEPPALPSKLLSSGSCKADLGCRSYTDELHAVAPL

human IL-17RA = target: T5, human IL-17RA (human, UniProt Q96F46 33-866); test: radioligand competition binding: 125I-hIL-17C displaced by unlabeled hIL-17C on 293 cells expressing hIL-17RA
T5 construct: Retrovirally expressed on 293 cells from human IL17RA cDNA (pMSCV-IRES-GFP); Surface expression was confirmed with an anti-Flag antibody, so the construct may carry a Flag tag; not described; also called hIL-17RA
T5 sequence: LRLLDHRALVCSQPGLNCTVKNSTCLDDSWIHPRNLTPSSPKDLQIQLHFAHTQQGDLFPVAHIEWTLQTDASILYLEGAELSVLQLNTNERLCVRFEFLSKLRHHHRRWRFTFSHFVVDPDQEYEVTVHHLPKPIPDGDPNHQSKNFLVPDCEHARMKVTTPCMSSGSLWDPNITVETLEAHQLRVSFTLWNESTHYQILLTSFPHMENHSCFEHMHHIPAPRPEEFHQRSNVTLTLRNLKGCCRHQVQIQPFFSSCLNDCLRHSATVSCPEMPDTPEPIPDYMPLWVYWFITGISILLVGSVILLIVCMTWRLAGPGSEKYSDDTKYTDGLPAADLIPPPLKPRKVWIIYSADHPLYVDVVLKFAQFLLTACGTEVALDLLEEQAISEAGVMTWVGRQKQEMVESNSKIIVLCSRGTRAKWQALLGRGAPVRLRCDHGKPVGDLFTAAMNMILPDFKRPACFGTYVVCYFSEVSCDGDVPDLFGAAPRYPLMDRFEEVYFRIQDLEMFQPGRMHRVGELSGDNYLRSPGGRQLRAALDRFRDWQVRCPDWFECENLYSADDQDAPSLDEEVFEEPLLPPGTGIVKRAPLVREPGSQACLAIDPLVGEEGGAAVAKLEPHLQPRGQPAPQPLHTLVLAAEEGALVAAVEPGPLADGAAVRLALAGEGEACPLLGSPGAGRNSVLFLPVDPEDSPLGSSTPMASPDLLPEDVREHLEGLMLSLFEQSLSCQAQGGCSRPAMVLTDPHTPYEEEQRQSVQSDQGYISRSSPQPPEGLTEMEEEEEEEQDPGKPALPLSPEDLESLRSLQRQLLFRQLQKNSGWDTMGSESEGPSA
Description: (§1) 293 cells expressing the IL-17 receptors were incubated for 2 hours at room temperature with a fixed concentration of iodinated hIL-17C combined with increasing concentrations of unlabeled hIL-17C and including a zero-added, buffer only sample. After the 2-hour incubation, the competition reactions were transferred to a Millipore Multiscreen filter plate and washed 4 times with binding buffer to separate the free from bound iodinated hIL-17C. The filters were counted on a Wallac Wizard 1470 gamma counter and binding data was evaluated using NewLigand software (Genentech), which uses the fitting algorithm of Munson and Rodbard to determine the binding affinity of IL-17C 58.

human IL-17RE [2] = target: T1, human IL-17RE; test: radioligand competition binding: 125I-hIL-17C displaced by unlabeled hIL-17C on 293 cells expressing hIL-17RE
Description: as §1

B1: IL-17B (ligand, UniProt Q9UHF5 21-180, looked up)
chain: QPRSPKSKRKGQGRPGPLAPGPHQVPLDLVSRMKPYARMEEYERNIEEMVAQLRNSSELAQRKCEVNLQLWMSNKRSLSPWGYSINHDPSRIPVDLPEARCLCLGCVNPFTMQEDRSMVSVPVFSQVPVRRRLCPPPPRTGPCRQRAVMETIAVGCTCIF
- binding result (human IL-17RE [1]): no binding

B2: Flag-tagged mature human IL-17C (His-19 to Val-197) with Gly-77 and Arg-78 substituted to Arg and Thr (ligand)
chain: HHDPSLRGHPHSHGTPHCYSAEELPLGQAPPHLLARGAKWGQALPVALVSSLEAASHRRTHERPSATTQCPVLRPEEVLEADTHQRSISPWRYRVDTDEDRYPQKLAFAECLCRGCIDARTGRETAALNSVRLLQSLLVLRRRPCSRDGSGLPTPGAFAFHTEFIHVPVGCTCVLPRSV
notes: Made in CHO cells as an N-terminal Flag fusion; For the radioligand assay the protein was iodinated (Iodogen); also called hIL-17C; FLAG-tagged hIL-17C; not shown: N-terminal Flag tag
- binding result (human IL-17RB): no binding
- binding result (human IL-17RC): no binding
- binding result (human IL-17RD): no binding
- Kd (human IL-17RA): 1400 nM
- Kd (human IL-17RE [2]): 0.35 nM

The next lines start with the values.

- binding result (human IL-17RE [1]): no binding
B3: IL-17F (ligand, UniProt Q96PD4 31-163, looked up)
chain: RKIPKVGHTFFQKPESCPPVPGGSMKLDIGIINENQRVSMSRNIESRSTSPWNYTVTWDPNRYPSEVVQAQCRNLGCINAQGKEDISMNSVPIQQETLVVRRKHQGCSVSFQLEKVLVTVGCTCVTPVIHHVQ

- binding result (human IL-17RE [1]): no binding
B4: IL-17E (ligand, UniProt Q9H293 33-177, looked up)
chain: YSHWPSCCPSKGQDTSEELLRWSTVPVPPLEPARPNRHPESCRASEDGPLNSRAISPWRYELDRDLNRLPQDLYHARCLCPHCVSLQTGSHMDPRGNSELLYHNQTVFYRRPCHGEKGTHKGYCLERRLYRVSLACVCVRPRVMG
notes: also called IL-25
